These sequences were tested against FGFR3 (UniProt P22607) (assay: phosphorylation enrichment, bacterial display (enrichment ratio); higher = better substrate or ligand; peptides without Tyr show the background).
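Also: 11-residue human phosphosite peptides and single-mutation variants displayed on the E. coli surface, counted by deep sequencing, each peptide's frequency after selection divided by its frequency in the unselected input library; frequency after pTyr selection over input frequency; kinase dosed for 20-30% of maximal phosphorylation in three min.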

Chain of FGFR3 (P22607 whole entry, looked up): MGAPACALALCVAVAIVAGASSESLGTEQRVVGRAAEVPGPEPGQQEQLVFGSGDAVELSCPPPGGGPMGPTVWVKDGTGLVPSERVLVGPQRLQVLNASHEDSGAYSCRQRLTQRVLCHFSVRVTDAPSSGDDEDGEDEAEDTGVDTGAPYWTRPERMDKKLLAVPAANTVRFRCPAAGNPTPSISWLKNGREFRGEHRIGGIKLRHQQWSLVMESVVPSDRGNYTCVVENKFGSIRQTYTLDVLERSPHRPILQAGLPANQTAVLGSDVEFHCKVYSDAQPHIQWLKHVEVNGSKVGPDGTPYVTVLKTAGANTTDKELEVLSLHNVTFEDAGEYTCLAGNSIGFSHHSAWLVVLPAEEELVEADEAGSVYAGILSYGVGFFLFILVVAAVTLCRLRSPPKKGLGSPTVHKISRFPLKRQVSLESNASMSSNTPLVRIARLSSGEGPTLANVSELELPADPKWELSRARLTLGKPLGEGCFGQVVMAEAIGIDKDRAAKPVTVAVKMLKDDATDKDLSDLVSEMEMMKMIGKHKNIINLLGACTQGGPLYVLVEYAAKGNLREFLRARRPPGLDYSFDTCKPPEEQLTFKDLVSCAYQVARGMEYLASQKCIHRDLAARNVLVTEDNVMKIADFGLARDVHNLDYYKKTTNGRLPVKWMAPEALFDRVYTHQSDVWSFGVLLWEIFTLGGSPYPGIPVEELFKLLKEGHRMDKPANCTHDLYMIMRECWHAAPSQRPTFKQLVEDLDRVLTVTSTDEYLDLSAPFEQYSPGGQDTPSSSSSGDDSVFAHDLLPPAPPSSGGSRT

Row | Sequence | phosphorylation enrichment
1 | HQPGEYLFHAE [FLT3_Y416_I417L] | 0.691
2 | QGIIIYRAAFF [SLC25A4_Y187_YF] | 0.634
3 | ERDFTYEELLN [EIF2S2_Y176_YF] | 0.692
4 | LLNAIYLSAKW [SERPING1_Y294] | 2.29
5 | KPLMPSMRFSR [SMARCE1_Y73_Y73S_YF] | 0.463
6 | ACQSLYGGFVE [MVD_Y164_R161Q] | 0.665
7 | REATAYLHGRL [AGXT_Y297_A295T] | 0.533
8 | CTTIHYNYMCS [TP53_Y234_N239S] | 0.639
9 | MSYDRYMAVCH [OR2A5_Y123_I126V] | 0.57
10 | KILGTYFETGS [PAX2_Y72_R71T_YF] | 0.793
11 | RRGFLYDSDEE [MCM2_Y137_L135F] | 0.458
12 | FLAAIYPTVGQ [NF1_Y2508_T2507I_YF] | 0.583
13 | FSKDNYKRVTG [PANK2_Y405_YF] | 0.393
14 | YGLQAYTEVKT [ALDH2_Y502] | 0.842
15 | QGGRHYMMIVD [GAA_Y438_R437H] | 0.981
16 | ILDEAYVMAGV [ERBB2_Y772] | 0.642
17 | HSDFQYGQRSQ [PKP2_Y168_S169G_YF] | 0.639
18 | DIMDLYNQPEL [IL36A_Y96_P101L] | 0.943
19 | VYSATYHPDHW [EFCAB12_Y544_P541S] | 1.18
20 | AVEDQYYCVDC [FHL1_Y207] | 4.65
21 | EEEFFYEKAIL [BCCIP_Y257] | 0.895
22 | YSMGCYEISLE [HMGCL_Y198_G203E] | 1.09
23 | DILASYLDKVR [KRT12_Y139_R135I] | 0.594
24 | AVARMYGVLPW [PLP1_Y207_D203V] | 0.536
25 | LVQAEYWRDPI [PPT1_Y185_H187R] | 1.22
26 | FGSVDYWEKFF [EEF1AKNMT_Y16] | 1.05
27 | AEVIWYKGDEE | 0.636
28 | EKNANYKEGTY [CLRN1_Y171_I168N] | 0.4
29 | QLPATYMNLGP [MST1R_Y1360] | 0.616

What follows are sequences tested on Fer (mouse) in the same assay as above.

Row | Sequence | phosphorylation enrichment
30 | HQPGEYLFHAE [FLT3_Y416_I417L] | 0.554
31 | QGIIIYRAAFF [SLC25A4_Y187_YF] | 0.581
32 | ERDFTYEELLN [EIF2S2_Y176_YF] | 0.69
33 | LLNAIYLSAKW [SERPING1_Y294] | 0.692
34 | KPLMPSMRFSR [SMARCE1_Y73_Y73S_YF] | 0.35
35 | ACQSLYGGFVE [MVD_Y164_R161Q] | 0.744
36 | REATAYLHGRL [AGXT_Y297_A295T] | 0.615
37 | CTTIHYNYMCS [TP53_Y234_N239S] | 0.713
38 | MSYDRYMAVCH [OR2A5_Y123_I126V] | 0.595
39 | KILGTYFETGS [PAX2_Y72_R71T_YF] | 0.467
40 | RRGFLYDSDEE [MCM2_Y137_L135F] | 0.501
41 | FLAAIYPTVGQ [NF1_Y2508_T2507I_YF] | 0.382
42 | FSKDNYKRVTG [PANK2_Y405_YF] | 0.394
43 | YGLQAYTEVKT [ALDH2_Y502] | 0.704
44 | QGGRHYMMIVD [GAA_Y438_R437H] | 0.605
45 | ILDEAYVMAGV [ERBB2_Y772] | 0.448
46 | HSDFQYGQRSQ [PKP2_Y168_S169G_YF] | 0.78
47 | DIMDLYNQPEL [IL36A_Y96_P101L] | 0.589
48 | VYSATYHPDHW [EFCAB12_Y544_P541S] | 4.14
49 | AVEDQYYCVDC [FHL1_Y207] | 0.684
50 | EEEFFYEKAIL [BCCIP_Y257] | 5.34
51 | YSMGCYEISLE [HMGCL_Y198_G203E] | 1.82
52 | DILASYLDKVR [KRT12_Y139_R135I] | 0.284
53 | AVARMYGVLPW [PLP1_Y207_D203V] | 0.505
54 | LVQAEYWRDPI [PPT1_Y185_H187R] | 0.693
55 | FGSVDYWEKFF [EEF1AKNMT_Y16] | 0.506
56 | AEVIWYKGDEE | 0.342
57 | EKNANYKEGTY [CLRN1_Y171_I168N] | 0.363
58 | QLPATYMNLGP [MST1R_Y1360] | 0.406

These sequences were tested against Fes (UniProt P07332) in the same assay as above.
Chain of Fes (P07332 whole entry, looked up): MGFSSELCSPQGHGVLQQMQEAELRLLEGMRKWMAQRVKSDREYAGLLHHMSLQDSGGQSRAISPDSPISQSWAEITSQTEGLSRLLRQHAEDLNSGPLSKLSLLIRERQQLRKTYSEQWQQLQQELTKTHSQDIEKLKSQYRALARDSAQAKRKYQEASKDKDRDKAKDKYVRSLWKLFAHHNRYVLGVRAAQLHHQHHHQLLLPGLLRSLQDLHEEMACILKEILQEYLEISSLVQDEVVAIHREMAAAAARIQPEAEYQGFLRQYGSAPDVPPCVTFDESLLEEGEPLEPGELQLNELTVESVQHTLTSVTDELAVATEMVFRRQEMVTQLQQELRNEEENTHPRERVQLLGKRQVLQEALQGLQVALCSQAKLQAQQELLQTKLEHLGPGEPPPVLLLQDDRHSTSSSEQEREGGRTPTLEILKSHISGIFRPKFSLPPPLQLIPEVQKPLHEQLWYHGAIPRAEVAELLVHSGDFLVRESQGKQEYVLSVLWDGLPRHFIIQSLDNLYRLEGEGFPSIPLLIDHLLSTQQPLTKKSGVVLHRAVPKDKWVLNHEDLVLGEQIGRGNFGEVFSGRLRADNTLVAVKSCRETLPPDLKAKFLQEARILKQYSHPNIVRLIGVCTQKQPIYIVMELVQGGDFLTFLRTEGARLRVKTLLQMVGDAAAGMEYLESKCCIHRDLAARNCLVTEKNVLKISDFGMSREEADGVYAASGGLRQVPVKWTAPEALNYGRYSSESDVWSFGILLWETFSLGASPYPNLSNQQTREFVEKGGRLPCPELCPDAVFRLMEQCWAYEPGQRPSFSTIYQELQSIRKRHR

Row | Sequence | phosphorylation enrichment
59 | HQPGEYLFHAE [FLT3_Y416_I417L] | 1.13
60 | QGIIIYRAAFF [SLC25A4_Y187_YF] | 1.69
61 | ERDFTYEELLN [EIF2S2_Y176_YF] | 1.12
62 | LLNAIYLSAKW [SERPING1_Y294] | 1.66
63 | KPLMPSMRFSR [SMARCE1_Y73_Y73S_YF] | 0.876
64 | ACQSLYGGFVE [MVD_Y164_R161Q] | 0.945
65 | REATAYLHGRL [AGXT_Y297_A295T] | 0.793
66 | CTTIHYNYMCS [TP53_Y234_N239S] | 0.835
67 | MSYDRYMAVCH [OR2A5_Y123_I126V] | 0.878
68 | KILGTYFETGS [PAX2_Y72_R71T_YF] | 0.867
69 | RRGFLYDSDEE [MCM2_Y137_L135F] | 0.761
70 | FLAAIYPTVGQ [NF1_Y2508_T2507I_YF] | 0.943
71 | FSKDNYKRVTG [PANK2_Y405_YF] | 0.452
72 | YGLQAYTEVKT [ALDH2_Y502] | 1.29
73 | QGGRHYMMIVD [GAA_Y438_R437H] | 0.778
74 | ILDEAYVMAGV [ERBB2_Y772] | 0.916
75 | HSDFQYGQRSQ [PKP2_Y168_S169G_YF] | 1.25
76 | DIMDLYNQPEL [IL36A_Y96_P101L] | 1.28
77 | VYSATYHPDHW [EFCAB12_Y544_P541S] | 1.24
78 | AVEDQYYCVDC [FHL1_Y207] | 1.3
79 | EEEFFYEKAIL [BCCIP_Y257] | 1.55
80 | YSMGCYEISLE [HMGCL_Y198_G203E] | 1.35
81 | DILASYLDKVR [KRT12_Y139_R135I] | 0.96
82 | AVARMYGVLPW [PLP1_Y207_D203V] | 0.866
83 | LVQAEYWRDPI [PPT1_Y185_H187R] | 1.72
84 | FGSVDYWEKFF [EEF1AKNMT_Y16] | 1.23
85 | AEVIWYKGDEE | 1.07
86 | EKNANYKEGTY [CLRN1_Y171_I168N] | 0.617
87 | QLPATYMNLGP [MST1R_Y1360] | 0.747

These sequences were tested against Fyn (UniProt P06241) in the same assay as above.
Chain of Fyn (P06241 whole entry, looked up): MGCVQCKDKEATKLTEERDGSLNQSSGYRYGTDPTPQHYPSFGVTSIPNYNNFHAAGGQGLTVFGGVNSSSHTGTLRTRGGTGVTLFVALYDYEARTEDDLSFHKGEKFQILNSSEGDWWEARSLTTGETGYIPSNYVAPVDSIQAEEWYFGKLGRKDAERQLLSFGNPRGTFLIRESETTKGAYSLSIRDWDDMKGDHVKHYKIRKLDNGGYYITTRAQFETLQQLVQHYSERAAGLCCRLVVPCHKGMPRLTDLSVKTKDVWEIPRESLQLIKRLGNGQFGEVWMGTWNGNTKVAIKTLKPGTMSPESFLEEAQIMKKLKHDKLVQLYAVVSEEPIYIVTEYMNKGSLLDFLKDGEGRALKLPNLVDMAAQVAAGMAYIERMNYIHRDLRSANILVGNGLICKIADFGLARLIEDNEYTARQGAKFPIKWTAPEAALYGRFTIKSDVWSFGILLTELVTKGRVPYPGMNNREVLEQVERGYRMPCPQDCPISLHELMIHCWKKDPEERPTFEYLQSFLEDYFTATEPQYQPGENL

Row | Sequence | phosphorylation enrichment
88 | HQPGEYLFHAE [FLT3_Y416_I417L] | 0.481
89 | QGIIIYRAAFF [SLC25A4_Y187_YF] | 0.342
90 | ERDFTYEELLN [EIF2S2_Y176_YF] | 0.678
91 | LLNAIYLSAKW [SERPING1_Y294] | 1.12
92 | KPLMPSMRFSR [SMARCE1_Y73_Y73S_YF] | 0.424
93 | ACQSLYGGFVE [MVD_Y164_R161Q] | 11.1
94 | REATAYLHGRL [AGXT_Y297_A295T] | 0.595
95 | CTTIHYNYMCS [TP53_Y234_N239S] | 0.44
96 | MSYDRYMAVCH [OR2A5_Y123_I126V] | 0.475
97 | KILGTYFETGS [PAX2_Y72_R71T_YF] | 0.577
98 | RRGFLYDSDEE [MCM2_Y137_L135F] | 0.512
99 | FLAAIYPTVGQ [NF1_Y2508_T2507I_YF] | 0.39
100 | FSKDNYKRVTG [PANK2_Y405_YF] | 0.401
101 | YGLQAYTEVKT [ALDH2_Y502] | 0.546
102 | QGGRHYMMIVD [GAA_Y438_R437H] | 0.65
103 | ILDEAYVMAGV [ERBB2_Y772] | 0.555
104 | HSDFQYGQRSQ [PKP2_Y168_S169G_YF] | 0.766
105 | DIMDLYNQPEL [IL36A_Y96_P101L] | 0.932
106 | VYSATYHPDHW [EFCAB12_Y544_P541S] | 6.37
107 | AVEDQYYCVDC [FHL1_Y207] | 0.853
108 | EEEFFYEKAIL [BCCIP_Y257] | 0.633
109 | YSMGCYEISLE [HMGCL_Y198_G203E] | 1.65
110 | DILASYLDKVR [KRT12_Y139_R135I] | 0.457
111 | AVARMYGVLPW [PLP1_Y207_D203V] | 2.46
112 | LVQAEYWRDPI [PPT1_Y185_H187R] | 0.961
113 | FGSVDYWEKFF [EEF1AKNMT_Y16] | 0.499
114 | AEVIWYKGDEE | 0.369
115 | EKNANYKEGTY [CLRN1_Y171_I168N] | 0.403
116 | QLPATYMNLGP [MST1R_Y1360] | 0.706

From the supplement of paper PMC10065799, “High-throughput profiling of sequence recognition by tyrosine kinases and SH2 domains using bacterial peptide display” (eLife, 2023)
